Test results as given in patent publication US20040253243A1, “Aptamer therapeutics useful in ocular pharmacotherapy” (priority 2003, published 2004).
Strand notation (5' to 3'): a small letter for the sugar, then the base; units joined by * are phosphorothioate-linked, units joined directly phosphodiester-linked; [ ] holds rarer units or linkages, { } end groups; capitals alone tell only the bases. r = 2'-OH (RNA); f = 2'-fluoro

T1: TGFβ2 (Homo sapiens, UniProt P61812)
T1 construct: For bio-chemical characterization of these aptamers, two forms of mature TGFβ2 were generated, native and N-terminal his-tagged versions, in E. coli
T1 sequence (P61812 303-414 limits assumed): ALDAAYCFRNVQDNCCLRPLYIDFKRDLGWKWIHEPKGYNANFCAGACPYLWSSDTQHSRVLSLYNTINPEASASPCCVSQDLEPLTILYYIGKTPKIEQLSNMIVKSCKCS


Experiments:
TGFβ2 [1] = molecular target: T1, TGFβ2; experiment: Dot blot binding of doped reselection aptamers to TGFβ2; conditions: CW128_103
Procedure: TGFβ2 was serially diluted in DPBS containing 0.2 mg/ml BSA and 0.2 mg/ml tRNA. ^32P-labeled RNA (<20 pM) were incubated with TGFβ2 at room temperature for 30 min. Samples were pipetted with a multichannel pippetor onto a multiwell manifold holding layers of pre-wetted 0.45 micron nitrocellulose, hybond membrane, 3MM filter paper (the order is from top to bottom), aspirated, and washed 3× with DPBS (containing tRNA). All three filters were air dried, exposed to phosphorimager plate, analyzed by ImageQuant.

TGFβ2 [2] = molecular target: T1, TGFβ2; experiment: Binding data as performed in MLEC inhibition assay CW115-95, 117, 129; format: cell-based; conditions: full-length aptamer sequences; experiment 129
Procedure: MLEC Assay. The mink lung epithelial cell proliferation assay is performed over two days. On day 1:1) media is aspirated off from Mink Lung Epithelial Cells (MLEC); 2) the MLEC are washed with 10 ml 1×PBS; 3) 3 ml Trypsin is added and Trypsinize for 3 min at 37° C.; 4) quench with 10 ml 0.5% FBS media; 5) spin at 1000 rpm for 3.30 min; 6) aspirate off supernatant; 7) resuspend pellet in 10 ml 0.5% FBS media; 8) Count 10 μl cell suspension; 9) adjust cell density to 80,000 cells/ml; 10) add 50 μl of cells/well to black bottomed 96-well plates (4000 cells/well); pipet up and down during plating process to avoid settling of cells and uneven plating; 11) incubate cells at 37° C. in 5% CO2 for 4 hrs to allow adherence of cells; 12) add 25 μl of aptamer (or media, or other test reagent, such as for example, an antibody), preferably the outer wells are not used for treated cells; 13) add 25 μl of TGFβ2 (typically 25 pg/ml); and 14) incubate cells at 37° C. in 5% CO2 overnight.
On day 2:1) mix 20 μl BrdU with 2 ml 0.5% FBS media; 2) add 10 μl of BrdU mixture/well; 3) incubate cells at 37° C. in 5% CO2 for 3 hrs; 4) remove media and blot plates dry on paper towels; 5) add 200 μl/well FixDenat solution and incubate for 30 min at room temperature (RT); 6) remove FixDenat solution and blot plates dry on paper towels; 7) add 100 μl /well anti-BrdU POD solution and incubate for 90 min at RT; 8) remove anti-BrdU POD solution and blot plates dry on paper towels; 9) wash plates 3× with […] washing solution with 5 min RT incubations and blot plates dry on paper towels; 10) add 100 μl /well substrate solution and incubate for 3 min at RT in dark; and 11) read plates using PSP Luciferace 1 program on TopCount (Packard Bioscience Co., Downers Grove, Ill.).

Molecule | Kd (TGFβ2 [1]) [nM] | IC50 (TGFβ2 [2]) [nM]
GGGAGGACGAUGCGGACAGAGUAUUAUAGAGUAUGUAUAGCUAUACUGUCCAGACGACUCGCCCGA (nucleic acid, aptamer) rGrGrGrArGrGrAfCrGrAfUrGfCrGrGrAfCrArGrArGfUrAfUfUrAfUrArGrArGfUrAfUrGfUrAfUrArGfCfUrAfUrAfCfUrGfUfCfCrArGrAfCrGrAfCfUfCrGfCfCfCrGrA | 0.53 | 5.2
GGGAGGACGAUGCGGUGAGAGUAUUAUAGAGUCUGUAUAGCUAUACCACCAGACGACUCGCCCGA (nucleic acid, aptamer) rGrGrGrArGrGrAfCrGrAfUrGfCrGrGfUrGrArGrArGfUrAfUfUrAfUrArGrArGfUfCfUrGfUrAfUrArGfCfUrAfUrAfCfCrAfCfCrArGrAfCrGrAfCfUfCrGfCfCfCrGrA |  | 8
GGGAGGACGAUGCGGUGUGAGUAUUAUAGAGUCUGUAUAGCUAUACCACCAGACGACUCGCCCGA (nucleic acid, aptamer) rGrGrGrArGrGrAfCrGrAfUrGfCrGrGfUrGfUrGrArGfUrAfUfUrAfUrArGrArGfUfCfUrGfUrAfUrArGfCfUrAfUrAfCfCrAfCfCrArGrAfCrGrAfCfUfCrGfCfCfCrGrA |  | 7.4
GGGAGGACGAUGCGGUGAGAGUAUUAUAGAGUCUGUAUAGCUAUACUCGCCAGACGACUCGCCCGA (nucleic acid, aptamer) rGrGrGrArGrGrAfCrGrAfUrGfCrGrGfUrGrArGrArGfUrAfUfUrAfUrArGrArGfUfCfUrGfUrAfUrArGfCfUrAfUrAfCfUfCrGfCfCrArGrAfCrGrAfCfUfCrGfCfCfCrGrA |  | 6.5
GGGAGGACGAUGCGGGACAGAGUAUUAUAGAGUAUGUAUAGCUAUACUGUCAGACGACUCGCCCGA (nucleic acid, aptamer) rGrGrGrArGrGrAfCrGrAfUrGfCrGrGrGrAfCrArGrArGfUrAfUfUrAfUrArGrArGfUrAfUrGfUrAfUrArGfCfUrAfUrAfCfUrGfUfCrArGrAfCrGrAfCfUfCrGfCfCfCrGrA |  | 12.1
GGGAGGACGAUGCGGAGGGAUUAUUAUAGAGUCUGUAUAGCUAUACCCUCAGACGACUCGCCCGA (nucleic acid, aptamer) rGrGrGrArGrGrAfCrGrAfUrGfCrGrGrArGrGrGrAfUfUrAfUfUrAfUrArGrArGfUfCfUrGfUrAfUrArGfCfUrAfUrAfCfCfCfUfCrArGrAfCrGrAfCfUfCrGfCfCfCrGrA |  | 5.3
GGGAGGACGAUGCGGGGAGGUUAUUACAGAGUCUGUAUAGCUGUACUCCCAGACGACUCGCCCGA (nucleic acid) rGrGrGrArGrGrAfCrGrAfUrGfCrGrGrGrGrArGrGfUfUrAfUfUrAfCrArGrArGfUfCfUrGfUrAfUrArGfCfUrGfUrAfCfUfCfCfCrArGrAfCrGrAfCfUfCrGfCfCfCrGrA | 0.75 | 
GGGAGGACGAUGCGGAUAGAGUAUUAUAGAGUAUGUAUAGCUAUACUAUCAGACGACUCGCCCGA (nucleic acid, aptamer) rGrGrGrArGrGrAfCrGrAfUrGfCrGrGrAfUrArGrArGfUrAfUfUrAfUrArGrArGfUrAfUrGfUrAfUrArGfCfUrAfUrAfCfUrAfUfCrArGrAfCrGrAfCfUfCrGfCfCfCrGrA |  | 17.9
GGGAGGACGAUGCGGACAGAGUAUUAUAGAGUAUGUAUAGCUAUACUGUCAGACGACUCGCCCGA (nucleic acid, aptamer) rGrGrGrArGrGrAfCrGrAfUrGfCrGrGrAfCrArGrArGfUrAfUfUrAfUrArGrArGfUrAfUrGfUrAfUrArGfCfUrAfUrAfCfUrGfUfCrArGrAfCrGrAfCfUfCrGfCfCfCrGrA |  | 14.5
